Among the data in patent publication US20250186604A1 (ADC THERAPEUTICS, published 2025) are EC50 values, retold here.

To fix the notation:
B1: MDX 2A10 (antibody, human IgG1, kappa, V domains shown)
VH: EVQLVQSGAEVKKPGESLKISCKGSGYSFTSNWIGWVRQMPGKGLEWMGIIYPGDSDTRYSPSFQGQVTISADKSISTAYLQWSSLKASDTAMYYCARQTGFLWSSDLWGRGTLVTVSS
VL: AIQLTQSPSSLSASVGDRVTITCRASQDISSALAWYQQKPGKAPKLLIYDASSLESGVPSRFSGYGSGTDFTLTINSLQPEDFATYYCQQFNSYPLTFGGGTKVEIKR
notes: also called antibody 2A10
B2: D2B (antibody, V domains shown)
VH: EVKLQESGPGLVKPSQSLSLTCSVTGYSITSGYYWNWIRQFPGNKLEWMGSISFDGNNNYNPSLRNRISITRDTSKNQFFLKLNSVTTEDTATYYCAREGDYYGSSFFTYWGQGTLVTVS
VL: DIVMTQSPASLSASVGETVTLTCGASENIYGALNWYQRKQGKSPQLLIYGATNLADGMSSRFSGSGSGRQYSLKISSLHPDDVATYYCQNVFRTYTFGGGTKLEIKR
B3: J415 (antibody, V domains shown)
VH: EVKLEESGGGLVQPGGSMKLSCVASGFTFSNYWMNWVRQSPEKGLEWVAEIRSQSNNFATHYAESVKGRVIISRDDSKSSVYLQMNNLRAEDTGIYYCTRRWNNFWGQGTTLTVSS
VL: NIVMTQFPKSMSISVGERVTLTCKASENVGTYVSWYQQKPEQSPKMLIYGASNRFTGVPDRFTGSGSATDFILTISSVQTEDLVDYYCGQSYTFPYTFGGGTKLEMK

The EC50 is the concentration that produces a half-maximal response. The low end stands for higher potency in that assay, the high end for lower potency in that assay.

For this assay, the target named is T1, Human PSMA (Prostate-Specific Membrane Antigen) (human, UniProt Q04609 44-750, limits assumed).
T1 construct: Coated on a 96 well plate at 3 ug/ml
T1 sequence (Q04609 44-750 limits assumed): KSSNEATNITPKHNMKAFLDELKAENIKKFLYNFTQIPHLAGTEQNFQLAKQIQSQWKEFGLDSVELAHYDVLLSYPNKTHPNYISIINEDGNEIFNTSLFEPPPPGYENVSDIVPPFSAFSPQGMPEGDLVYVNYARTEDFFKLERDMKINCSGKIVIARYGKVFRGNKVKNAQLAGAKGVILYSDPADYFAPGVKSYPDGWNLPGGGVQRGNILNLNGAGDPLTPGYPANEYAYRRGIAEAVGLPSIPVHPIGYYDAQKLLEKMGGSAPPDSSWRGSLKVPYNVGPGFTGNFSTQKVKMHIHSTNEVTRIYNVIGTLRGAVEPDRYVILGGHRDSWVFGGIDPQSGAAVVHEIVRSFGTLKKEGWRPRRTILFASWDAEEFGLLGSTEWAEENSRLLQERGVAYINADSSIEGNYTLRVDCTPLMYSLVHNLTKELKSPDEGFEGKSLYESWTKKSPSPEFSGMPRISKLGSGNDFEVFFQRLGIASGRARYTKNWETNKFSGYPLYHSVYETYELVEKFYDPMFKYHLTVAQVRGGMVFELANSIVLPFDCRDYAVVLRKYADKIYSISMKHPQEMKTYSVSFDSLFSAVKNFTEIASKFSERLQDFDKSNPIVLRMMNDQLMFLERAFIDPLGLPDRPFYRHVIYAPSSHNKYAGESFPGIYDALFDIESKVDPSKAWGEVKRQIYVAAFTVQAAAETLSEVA
Briefly: ELISA, human PSMA coated on plate, anti-human-IgG-HRP detection. As for the experimental part:
Human PSMA was coated on a 96 well plate at 3 μg/ml for at least two hours at room temperature. The plate was washed with wash buffer (0.05% Tween-20 in PBS), then blocked with blocking buffer (3% BSA in PBS) washed again using wash buffer. After which antibodies were titrated from 66.6 nM to 0.013 nM and added to the plate and incubated at room temperature for one hour, after which the plate was washed and anti-human-IgG-HRP added, the plate was incubated for a further 1 hour at room temperature, before being washed and TMB detection reagent added, the reaction was stopped by the addition of 1M HCl to the wells, after which the plate was read at 450 nm using the SpectraMax plate reader.
Background: ELISA stands for enzyme-linked immunosorbent assay.
With B1, the EC50 came out at 0.115 nM.

B2 yielded an EC50 of 0.173 nM.

Molecule B3 displayed a concentration giving a half-maximal response (EC50) of 24.8 nM.
